Experimental findings from US20240084003A1 (SIMCERE ZAIMING PHARMACEUTICAL, published 2024) are described below.

The target of experiment [1] is T1, monkey CD22 protein (ACROBiosystems, catalog number SI2-R52Ha) (monkey, UniProt F6W485 20-688).
T1 construct: commercial protein; also called monkey CD22-ECD; monkey CD22-ECD-His
T1 sequence: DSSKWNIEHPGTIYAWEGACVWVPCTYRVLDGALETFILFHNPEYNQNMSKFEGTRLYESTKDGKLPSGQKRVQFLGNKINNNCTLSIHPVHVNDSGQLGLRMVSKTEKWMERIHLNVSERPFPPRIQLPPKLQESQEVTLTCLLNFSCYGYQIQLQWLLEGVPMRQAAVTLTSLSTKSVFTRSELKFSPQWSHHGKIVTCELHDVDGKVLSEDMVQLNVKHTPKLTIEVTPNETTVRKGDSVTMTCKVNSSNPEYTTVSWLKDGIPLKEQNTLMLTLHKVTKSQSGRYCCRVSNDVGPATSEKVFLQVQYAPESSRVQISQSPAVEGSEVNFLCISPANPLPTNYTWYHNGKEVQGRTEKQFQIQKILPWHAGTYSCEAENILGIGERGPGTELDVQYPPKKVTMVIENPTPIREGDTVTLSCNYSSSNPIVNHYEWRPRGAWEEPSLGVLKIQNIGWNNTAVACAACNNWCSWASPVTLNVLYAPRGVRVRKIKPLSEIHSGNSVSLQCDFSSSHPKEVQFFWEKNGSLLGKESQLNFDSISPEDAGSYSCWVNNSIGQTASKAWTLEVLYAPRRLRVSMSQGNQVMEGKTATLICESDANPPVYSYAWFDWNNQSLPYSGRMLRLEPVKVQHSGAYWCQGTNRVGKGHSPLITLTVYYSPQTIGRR
In words: ELISA, coated monkey CD22 protein, antibody 0.1 nM. The procedure:
(§1) In order to detect the binding activity of CD22 human-murine chimeric antibodies to CD22 protein, the purified human CD22-ECD-His protein obtained in Example 2 was diluted with PBS to a final concentration of 2 μg/mL, and then added to 96-well ELISA plate at 100 μl/well. The plate was sealed with plastic film and incubated overnight at 4° C., the plate was washed 2 times with PBS the next day, and then a blocking solution [PBS+2% (w/w) BSA] was added for blocking at room temperature for 2 hours. […] After incubation at 37° C. for 2 hours, the plate was washed 3 times with PBS. HRP (horseradish peroxidase)-labeled secondary antibody (purchased from Sigma, catalog number: A0170) was added, and incubated at 37° C. for 2 hours, and the plate was washed 5 times with PBS. TMB substrate was added at 50 μl/well, and incubated at room temperature for 30 minutes, then a stop solution (1.0 N HCl) was added at 50 μl/well.
(§2) In order to detect the species cross-binding activity of the chimeric antibodies, an ELISA plate was coated with commercial murine CD22 protein (ACROBiosystems, catalog number: SI2-M52Ha) and monkey CD22 protein (ACROBiosystems, catalog number: SI2-R52Ha), respectively, and the ELISA detection was performed according to the method in Example 5.1.
(In general: ELISA stands for enzyme-linked immunosorbent assay.)

In experiment [2] the target is T1, monkey CD22 protein (ACROBiosystems, …). In words: ELISA, coated monkey CD22 protein, antibody 0.0001 nM. Here is the method:
as §1, §2

The target is the same in experiment [3]. In words: ELISA, coated monkey CD22 protein, antibody 0.01 nM. Here is the method:
as §1, §2

Experiment [4] shares this target. In words: ELISA, coated monkey CD22 protein, antibody 0.00001 nM. The procedure: as §1, §2
Experiment [5] concerns the target T2, CD22 on cynomolgus monkey peripheral blood B cells (cynomolgus monkey (Macaca fascicularis)).
T2 construct: whole, on cells; also called cynomolgus monkey B cells
In words: FACS, cynomolgus PBMC, CD20+ B cells, antibody 1 nM. The source says: (§3) The monkey peripheral blood mononuclear cells were extracted from fresh cynomolgus monkey peripheral blood (purchased from Shanghai Medicilon Inc.) according to the instructions of Ficoll-Paque Plus (purchased from GE Healthcare, catalog number: 171440-02). After the cell suspension was centrifuged, the cells were resuspended in PBS containing 1% BSA, and then the cells were counted. At the same time, the murine antibody Brilliant Violet 605 anti-human CD20 (catalog number: 302334, purchased from Biolegend) with monkey CD20 cross-binding activity and the chimeric antibodies to be tested (1 nM, 10 nM and 100 nM) were added and incubated at room temperature for 1 hour. After washing the cells three times, APC-labeled secondary antibody anti-human IgG Fc (catalog number: 409306, purchased from Biolegend) was added. After incubation at room temperature in the dark for 30 minutes, the cells were washed 5 times, gently resuspended with PBS containing 1% BSA, and detected and analyzed by FACS (FACS Canto™, purchased from BD Company). Wherein CD20 was used as a marker of B cells, and the CD20-positive B cell population was gated, the proportion of chimeric antibody positive cells was analyzed, and the proportion of chimeric antibody positive cell population to B cell population was calculated after treatments with the chimeric antibodies at the concentrations of 100 nM, 10 nM and 1 nM, respectively. The scatter plot of double-stained cells by Brilliant Violet 605-labeled CD20 and APC secondary antibody indirectly labeled chimeric antibody is shown in FIG. 10A-FIG. 10B (under the condition of 1 nM of chimeric antibody concentration).
(In general: A flow cytometer gives signals particle by particle.)

Experiment [6] has as its target T2, CD22 on cynomolgus monkey peripheral …. In words: FACS, cynomolgus PBMC, CD20+ B cells, antibody 10 nM.
Excerpt: as §3

The target of experiment [7] is T1, monkey CD22 protein (ACROBiosystems, …). In words: ELISA, coated monkey CD22 protein, antibody 100 nM. Here is the method:
as §1, §2

The target is the same in experiment [8]. In words: ELISA, coated monkey CD22 protein, antibody 0.001 nM. Here is the method: as §1, §2
Experiment [9] shares this target. The experiment is described as follows: ELISA, coated monkey CD22 protein, antibody 10 nM. Here is the method:
as §1, §2

The target in experiment [10] is T2, CD22 on cynomolgus monkey peripheral …. In words: FACS, cynomolgus PBMC, CD20+ B cells, antibody 100 nM.
Excerpt: as §3

B1: F1.105.11 (antibody, human IgG1, kappa, V domains shown)
VH: EVQLQQSGPVLVKPGASVKMSCKASGYTFSDYFMNWVKQSHGKSLEWIGIINSYSGGTSYNQKFKGKATLTVDKSSSTAYMELNSLTSEDSAVYYCARWMDYWGQGTSVTVSS
VL: DVQITQSPSYLAASPGETITINCRTSESISKHLAWYQEKPGKTNKLLIYSGSTLQSGIPSRFSGSGSGTDFTLTISSLEPEDFAMYYCQQHNEYPWTFGGGTKLEIKR
notes: human-murine chimeric IgG1 kappa; VL name legible
For B1, the OD450 in experiment [1] turned out to be 1.31 OD450; in experiment [2] it was 0.07 OD450; in [3] it was 0.68 OD450; in [4], 0.06 OD450; in experiment [7], 1.29 OD450; in [8] it was 0.17 OD450. In [9], this molecule had an OD450 of 1.4 OD450. Besides, the “Proportion of chimeric antibody positive cells to B cells (%)” value (from here on “Proportion … (%)”) in experiment [5] amounted to 46%; in [6], 59%; in [10] it was 69%.

B2: F1.224.1 (antibody, human IgG1, kappa, V domains shown)
VH: EVLLHQSGPELVKPGASVKISCKASGYTFTDFNMDWVRQRHGQSLEWIGDVNPNNGGTIYNQKFKGKATLTVDKSSSTVYMDLRSLTSDDTAVYYCVRLGTSDYGEAWFISWGQGTVVTVSA
VL: DIVLTQSPASLAVSLGQRATISCRASQSVSTPRYSFMHWYQQKPGQPPKLLIKYASNLESGFPARFTGSGSGTDFTLNIHPVEEEDTAAYYCQQSWAIPWTFGGGTKLEIKR
notes: as for B1
Consider B2, for which the OD450 in experiment [1] came to 2.3 OD450; in experiment [2], 0.15 OD450; in [3], 1.86 OD450; in experiment [4] it was 0.08 OD450; in experiment [7], 2.87 OD450; in experiment [8] it was 0.6 OD450. Further, the OD450 in experiment [9] was 2.48 OD450. The “Proportion … (%)” value in experiment [5] was 83%; in experiment [6] it was 96%; in [10], 97%.

B3: F1.231.15 (antibody, IgG1, V domains shown)
VH: QVQLQQPGAELVKPGASVKLSCKTSGYTFTIYWMQWVKQRPGRGLEWIGRIDPHSGDTHYNENFTTKVTLTVDETSNTAYMHLSGLTSEDSAVYYCARRDYSYYVLDYWGQGTSVTVSS
VL: DVVLTQTPLSLPVSLGDQASISCRSSQSLVHINGDTYLHWYLQKPGQSPKLLIYTVFNRFSGVPDRFSGSGSGTDFTLKISRVEAEDLGAYFCSQSTHVPYTFGGGTKLEIKR
notes: human-murine chimeric IgG1 kappa
As for B3, the OD450 in [1] came out at 0.17 OD450; in experiment [2] it was 0.06 OD450; in experiment [3] it was 0.09 OD450; in experiment [4] it was 0.06 OD450; in experiment [7] it was 0.45 OD450; in experiment [8], 0.06 OD450. The molecule further returned an OD450 in experiment [9] of 0.31 OD450. Also, the “Proportion … (%)” value is 11% in experiment [5], 16% in experiment [6] and 29% in experiment [10].

B4: F1.250.16 (antibody, human IgG1, kappa, V domains shown)
VH: QVQLQQSGAEQVKPGASVKMSCKASGYTFTTYPIEWMKQNHGESLDWIGNIHPYNDDTEYNEKFKGKATLTVEKSSNTVFLELSRLTSDDSAVYYCVRGDYYNSRYWYFDVWGTGTTVTVSS
VL: DIVMTQSQKFMSTTVGDRVSITCKAGQNVRTAVAWYQQKPGQSPKLLIYSASTRYIGVPERFTGSGSGTDFTLTITNMQSEDLADYFCQQYSSFPLTFGTGTKLELKR
notes: as for B1
As to B4, the OD450 was found to be 2.81 OD450 in experiment [1]; 0.23 OD450 in [2]; 2.62 OD450 in experiment [3]; 0.1 OD450 in experiment [4]; 3.08 OD450 in experiment [7]; 1.02 OD450 in experiment [8]. This molecule also returned an OD450 in experiment [9] of 2.97 OD450. In addition, the “Proportion … (%)” value in experiment [5] was determined as 92%; in experiment [6], 95%; in experiment [10] it was 97%.

B5: F1.267.9 (antibody, human IgG1, kappa, V domains shown)
VH: EVQLQQSGPVLVKPGASVKMSCKASGYTFTDFYMNWAKQSHGKSLEWVGVINPYNGGINYNQKFKGKATLTVDKSSSTAYMEFNSLTSEDSAVYYCARRMEYHAMDYWGQGTSVTVSS
VL: DIVLTQSPASLAVSLGQRATISCRASESVDNYGFDFIHWYQQKPGQPPKLLIYRASNLESGIPARFSGSGSRPDFTLTINPVETDDVATYYCQQSIKDPWTFGGGTKLEIKR
notes: as for B1
B5: the OD450 amounted to 1.07 OD450 in experiment [1]; 0.07 OD450 in experiment [2]; 0.27 OD450 in experiment [3]; 0.06 OD450 in [4]; 2.27 OD450 in experiment [7]; 0.1 OD450 in [8]. Moreover, the OD450 in experiment [9] was 1.89 OD450. The “Proportion … (%)” value in experiment [5] came out at 39%; in [6] it was 91%; in experiment [10], 95%.

B6: F1.7.6 (antibody, human IgG1, kappa, V domains shown)
VH: EIQLQQSGPELVKPGTSVKVSCKASGYDFTRYNMYWVKQSHGKSLEWIGYIDPYNGDTRYNQKFKGKATLTVDKSSSTAYMHLNSLTSEDSAVYYCEAIYYDMEGYALDYWGQGTSVTVSS
VL: DIVMSQSPSSLAVSVGEKVTMSCKSSQSLLYSNNQKNYLAWYQQKPGQSPKKLIYWASTRESGVPDRLTGSGSGTDFTLTISSVTAEDLAVYYCQQFYSYPWTFGGGTKLEIKR
notes: as for B1
Take B6: the OD450 was found to be 0.07 OD450 in [1]; 0.06 OD450 in experiment [2]; 0.06 OD450 in experiment [3]; 0.06 OD450 in experiment [4]; 0.44 OD450 in experiment [7]; 0.06 OD450 in experiment [8]. The OD450 in [9] came to 0.17 OD450. Further, the “Proportion … (%)” value is 17% in [5], 28% in experiment [6] and 43% in [10].
